From patent US20200283521A1 (GRANULAR THERAPEUTICS, published 2020)
Blank lines part the entries; values can stand above or below the binder they belong to.

Assays:
Assay in all cases: direct ELISA on coated protein, IgG1
[1] = biological target: T1, hOX40-Fc
T1 construct: member of the panel m9
T1 chain: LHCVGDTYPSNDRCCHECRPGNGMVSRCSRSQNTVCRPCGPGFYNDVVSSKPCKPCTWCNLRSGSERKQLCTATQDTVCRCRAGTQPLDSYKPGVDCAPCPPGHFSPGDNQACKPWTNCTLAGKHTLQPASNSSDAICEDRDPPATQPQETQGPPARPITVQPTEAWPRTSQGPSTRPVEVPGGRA

[2] = biological target: T2, hTWEAK-Fc (human, UniProt O43508)
T2 construct: Fc fusion; member of the panel m9
T2 sequence (looked up): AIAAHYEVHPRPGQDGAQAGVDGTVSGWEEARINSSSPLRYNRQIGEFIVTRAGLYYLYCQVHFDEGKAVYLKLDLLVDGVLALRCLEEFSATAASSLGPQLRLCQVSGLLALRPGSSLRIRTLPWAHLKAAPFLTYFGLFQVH

[3] = biological target: T3, hVCAM-Fc
T3 construct: member of the panel m9
T3 chain: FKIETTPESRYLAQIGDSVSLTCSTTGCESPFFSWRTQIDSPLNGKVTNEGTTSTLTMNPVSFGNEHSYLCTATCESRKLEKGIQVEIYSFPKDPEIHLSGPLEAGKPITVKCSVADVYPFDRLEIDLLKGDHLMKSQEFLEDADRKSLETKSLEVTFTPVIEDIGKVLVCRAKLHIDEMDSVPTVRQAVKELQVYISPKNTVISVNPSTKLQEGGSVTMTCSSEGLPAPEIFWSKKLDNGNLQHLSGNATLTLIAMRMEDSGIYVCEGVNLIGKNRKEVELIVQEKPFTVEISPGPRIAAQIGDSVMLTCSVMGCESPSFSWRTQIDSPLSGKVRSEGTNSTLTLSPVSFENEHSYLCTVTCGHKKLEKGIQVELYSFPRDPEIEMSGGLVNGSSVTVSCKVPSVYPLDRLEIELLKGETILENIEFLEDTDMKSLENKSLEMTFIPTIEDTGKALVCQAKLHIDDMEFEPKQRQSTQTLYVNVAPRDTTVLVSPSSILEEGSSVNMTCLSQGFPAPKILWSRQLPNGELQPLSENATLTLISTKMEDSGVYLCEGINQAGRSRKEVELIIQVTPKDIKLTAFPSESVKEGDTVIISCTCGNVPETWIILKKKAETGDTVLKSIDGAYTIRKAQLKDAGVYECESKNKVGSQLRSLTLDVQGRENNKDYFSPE

[4] = biological target: T4, hDR3-Fc (human, UniProt Q93038)
T4 construct: Fc fusion; member of the panel m9
T4 sequence (looked up): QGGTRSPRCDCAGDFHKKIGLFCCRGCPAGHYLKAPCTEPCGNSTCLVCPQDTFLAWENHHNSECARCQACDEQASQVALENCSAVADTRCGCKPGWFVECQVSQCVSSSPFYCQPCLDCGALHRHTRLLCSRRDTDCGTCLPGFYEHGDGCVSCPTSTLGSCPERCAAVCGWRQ

[5] = biological target: T5, hLTBR-Fc (human, UniProt P36941)
T5 construct: Fc fusion; member of the panel m9
T5 sequence (P36941 28-227 limits assumed): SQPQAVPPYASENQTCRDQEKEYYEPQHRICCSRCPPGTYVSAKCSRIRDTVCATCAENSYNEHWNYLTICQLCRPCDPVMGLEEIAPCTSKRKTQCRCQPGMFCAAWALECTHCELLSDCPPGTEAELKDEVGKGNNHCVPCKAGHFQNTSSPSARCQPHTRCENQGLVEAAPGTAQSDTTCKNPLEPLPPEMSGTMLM

[6] = biological target: T6, hEpCAM-Fc (human, UniProt P16422)
T6 construct: Fc fusion; member of the panel m9
T6 sequence (looked up): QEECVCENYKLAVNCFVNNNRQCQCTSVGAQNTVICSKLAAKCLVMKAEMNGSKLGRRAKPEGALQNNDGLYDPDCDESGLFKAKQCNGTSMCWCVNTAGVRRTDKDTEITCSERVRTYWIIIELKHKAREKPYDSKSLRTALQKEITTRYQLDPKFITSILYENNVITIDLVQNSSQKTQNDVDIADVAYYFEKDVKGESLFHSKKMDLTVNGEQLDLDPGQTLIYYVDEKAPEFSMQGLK

[7] = biological target: T7, h4-1BB-Fc
T7 construct: member of the panel m9
T7 sequence (chain, as listed by the source limits assumed): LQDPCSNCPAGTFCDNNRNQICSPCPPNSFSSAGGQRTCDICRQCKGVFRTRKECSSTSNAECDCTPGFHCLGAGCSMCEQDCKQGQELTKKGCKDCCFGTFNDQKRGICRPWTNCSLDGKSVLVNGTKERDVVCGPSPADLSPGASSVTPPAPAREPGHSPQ

[8] = biological target: T8, hCD4 (human, UniProt P01730)
T8 construct: purified recombinant protein; member of the panel m9

[9] = biological target: T9, hCMET-Fc (The natural ectodomain is cleaved by furin after residue 307 into disulfide-linked alpha and beta chains. It is given here as one continuous stretch.)
T9 construct: member of the panel m9
T9 chain: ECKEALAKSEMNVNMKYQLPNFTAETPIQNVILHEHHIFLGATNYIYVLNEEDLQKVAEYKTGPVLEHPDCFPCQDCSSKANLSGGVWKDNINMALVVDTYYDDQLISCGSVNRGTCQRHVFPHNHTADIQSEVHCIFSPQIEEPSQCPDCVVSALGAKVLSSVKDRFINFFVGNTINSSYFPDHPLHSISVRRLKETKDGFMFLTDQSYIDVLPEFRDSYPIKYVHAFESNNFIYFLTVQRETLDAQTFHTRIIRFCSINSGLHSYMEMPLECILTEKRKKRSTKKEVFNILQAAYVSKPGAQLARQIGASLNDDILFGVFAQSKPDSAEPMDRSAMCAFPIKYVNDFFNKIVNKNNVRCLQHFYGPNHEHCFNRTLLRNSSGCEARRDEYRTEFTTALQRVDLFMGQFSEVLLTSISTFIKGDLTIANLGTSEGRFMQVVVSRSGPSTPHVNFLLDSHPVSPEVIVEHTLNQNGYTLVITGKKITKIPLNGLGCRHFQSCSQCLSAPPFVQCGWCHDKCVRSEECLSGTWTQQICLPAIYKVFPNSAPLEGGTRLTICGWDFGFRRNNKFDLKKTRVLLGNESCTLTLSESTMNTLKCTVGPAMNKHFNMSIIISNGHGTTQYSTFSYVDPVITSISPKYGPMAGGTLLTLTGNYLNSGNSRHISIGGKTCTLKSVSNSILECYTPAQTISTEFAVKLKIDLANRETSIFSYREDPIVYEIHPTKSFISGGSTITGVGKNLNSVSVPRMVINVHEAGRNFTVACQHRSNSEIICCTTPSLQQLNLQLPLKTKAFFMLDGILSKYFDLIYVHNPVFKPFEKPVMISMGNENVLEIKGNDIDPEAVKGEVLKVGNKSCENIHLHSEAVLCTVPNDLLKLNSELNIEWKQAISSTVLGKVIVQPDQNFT

[10] = biological target: T10, hICAM-1-Fc (human, UniProt P05362)
T10 construct: Fc fusion; member of the panel m9
T10 sequence (P05362 28-480 limits assumed): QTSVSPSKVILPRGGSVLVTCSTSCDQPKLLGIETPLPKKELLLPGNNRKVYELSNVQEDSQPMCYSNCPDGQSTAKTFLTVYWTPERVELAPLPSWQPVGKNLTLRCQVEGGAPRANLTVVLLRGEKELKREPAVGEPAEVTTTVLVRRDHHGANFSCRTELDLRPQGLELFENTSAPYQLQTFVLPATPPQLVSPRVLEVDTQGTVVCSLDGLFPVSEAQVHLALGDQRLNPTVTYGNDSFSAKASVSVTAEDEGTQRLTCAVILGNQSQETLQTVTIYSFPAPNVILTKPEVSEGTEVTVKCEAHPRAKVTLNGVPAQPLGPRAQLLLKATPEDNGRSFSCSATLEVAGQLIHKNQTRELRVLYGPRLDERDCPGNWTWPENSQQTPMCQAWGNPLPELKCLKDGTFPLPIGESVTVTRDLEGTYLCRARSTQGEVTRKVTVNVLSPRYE

[11] = biological target: T11, hBAFFR-Fc (human, UniProt Q96RJ3)
T11 construct: Fc fusion; member of the panel m9
T11 sequence (Q96RJ3 7-71 limits assumed): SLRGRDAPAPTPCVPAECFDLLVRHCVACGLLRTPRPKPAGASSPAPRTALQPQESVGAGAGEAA

binding result [1]: no binding (tested: 1 µg/ml)
binding result [2]: no binding (tested: 1 µg/ml)
binding result [3]: no binding (tested: 1 µg/ml)
binding result [4]: no binding (tested: 1 µg/ml)
binding result [5]: no binding (tested: 1 µg/ml)
binding result [6]: no binding (tested: 1 µg/ml)
binding result [7]: no binding (tested: 1 µg/ml)
B1: MH5.22 (antibody, IgG1, V domains shown)
VH: QVQLVQSGAEVKKPGASVKVSCKASGYTFTDFYMNWVRQAPGQGLEWMGRIYPASGNTYYAQKFQGRVTMTRDTSTSTVYMELSSLRSEDTAVYYCARGVWYYDYWGQGTLVTVSS
VL: DIQMTQSPSSLSASVGDRVTITCRASQGIRTNLAWFQQKPGKAPKSLIYAASSLQSGVPSRFSGSGSGTDFTLTISSLQPEDFATYYCQQYANYPRTFGGGTKVEIK
notes: IgG1; also called C-KIT-MH5.22

binding result [8]: no binding (tested: 1 µg/ml)
binding result [9]: no binding (tested: 1 µg/ml)
binding result [10]: no binding (tested: 1 µg/ml)
binding result [11]: no binding (tested: 1 µg/ml)
B2: humanized h37M, human IgG1 (antibody, V domains shown)
VH: QVQLVQSGAEVKKPGASVKLSCKASGYTFTDYYINWVRQAPGKGLEWIARIYPGSGNTYYNEKFKGRATLTADKSTSTAYMQLSSLRSEDTAVYFCARGVYYFDYWGQGTTVTVSS
VL: DIVMTQSPSSLSASVGDRVTITCKASQNVRTNVAWYQQKPGKAPKALIYSASYRYSGVPDRFTGSGSGTDFTLTISSLQPEDFADYFCQQYNSYPRTFGGGTKVEIK
notes: human IgG1; terbium-labelled as the tracer of the HTRF assays; also called C-KIT-h37M; h37M-IgG1
